Literature values, collected in article PMC11209288.

Biological target: inositol 1,4,5-triphosphate receptor (IP3R) (Homo sapiens) (UniProt Q14643)
Chain of UniProt Q14643 (Q14643 whole entry): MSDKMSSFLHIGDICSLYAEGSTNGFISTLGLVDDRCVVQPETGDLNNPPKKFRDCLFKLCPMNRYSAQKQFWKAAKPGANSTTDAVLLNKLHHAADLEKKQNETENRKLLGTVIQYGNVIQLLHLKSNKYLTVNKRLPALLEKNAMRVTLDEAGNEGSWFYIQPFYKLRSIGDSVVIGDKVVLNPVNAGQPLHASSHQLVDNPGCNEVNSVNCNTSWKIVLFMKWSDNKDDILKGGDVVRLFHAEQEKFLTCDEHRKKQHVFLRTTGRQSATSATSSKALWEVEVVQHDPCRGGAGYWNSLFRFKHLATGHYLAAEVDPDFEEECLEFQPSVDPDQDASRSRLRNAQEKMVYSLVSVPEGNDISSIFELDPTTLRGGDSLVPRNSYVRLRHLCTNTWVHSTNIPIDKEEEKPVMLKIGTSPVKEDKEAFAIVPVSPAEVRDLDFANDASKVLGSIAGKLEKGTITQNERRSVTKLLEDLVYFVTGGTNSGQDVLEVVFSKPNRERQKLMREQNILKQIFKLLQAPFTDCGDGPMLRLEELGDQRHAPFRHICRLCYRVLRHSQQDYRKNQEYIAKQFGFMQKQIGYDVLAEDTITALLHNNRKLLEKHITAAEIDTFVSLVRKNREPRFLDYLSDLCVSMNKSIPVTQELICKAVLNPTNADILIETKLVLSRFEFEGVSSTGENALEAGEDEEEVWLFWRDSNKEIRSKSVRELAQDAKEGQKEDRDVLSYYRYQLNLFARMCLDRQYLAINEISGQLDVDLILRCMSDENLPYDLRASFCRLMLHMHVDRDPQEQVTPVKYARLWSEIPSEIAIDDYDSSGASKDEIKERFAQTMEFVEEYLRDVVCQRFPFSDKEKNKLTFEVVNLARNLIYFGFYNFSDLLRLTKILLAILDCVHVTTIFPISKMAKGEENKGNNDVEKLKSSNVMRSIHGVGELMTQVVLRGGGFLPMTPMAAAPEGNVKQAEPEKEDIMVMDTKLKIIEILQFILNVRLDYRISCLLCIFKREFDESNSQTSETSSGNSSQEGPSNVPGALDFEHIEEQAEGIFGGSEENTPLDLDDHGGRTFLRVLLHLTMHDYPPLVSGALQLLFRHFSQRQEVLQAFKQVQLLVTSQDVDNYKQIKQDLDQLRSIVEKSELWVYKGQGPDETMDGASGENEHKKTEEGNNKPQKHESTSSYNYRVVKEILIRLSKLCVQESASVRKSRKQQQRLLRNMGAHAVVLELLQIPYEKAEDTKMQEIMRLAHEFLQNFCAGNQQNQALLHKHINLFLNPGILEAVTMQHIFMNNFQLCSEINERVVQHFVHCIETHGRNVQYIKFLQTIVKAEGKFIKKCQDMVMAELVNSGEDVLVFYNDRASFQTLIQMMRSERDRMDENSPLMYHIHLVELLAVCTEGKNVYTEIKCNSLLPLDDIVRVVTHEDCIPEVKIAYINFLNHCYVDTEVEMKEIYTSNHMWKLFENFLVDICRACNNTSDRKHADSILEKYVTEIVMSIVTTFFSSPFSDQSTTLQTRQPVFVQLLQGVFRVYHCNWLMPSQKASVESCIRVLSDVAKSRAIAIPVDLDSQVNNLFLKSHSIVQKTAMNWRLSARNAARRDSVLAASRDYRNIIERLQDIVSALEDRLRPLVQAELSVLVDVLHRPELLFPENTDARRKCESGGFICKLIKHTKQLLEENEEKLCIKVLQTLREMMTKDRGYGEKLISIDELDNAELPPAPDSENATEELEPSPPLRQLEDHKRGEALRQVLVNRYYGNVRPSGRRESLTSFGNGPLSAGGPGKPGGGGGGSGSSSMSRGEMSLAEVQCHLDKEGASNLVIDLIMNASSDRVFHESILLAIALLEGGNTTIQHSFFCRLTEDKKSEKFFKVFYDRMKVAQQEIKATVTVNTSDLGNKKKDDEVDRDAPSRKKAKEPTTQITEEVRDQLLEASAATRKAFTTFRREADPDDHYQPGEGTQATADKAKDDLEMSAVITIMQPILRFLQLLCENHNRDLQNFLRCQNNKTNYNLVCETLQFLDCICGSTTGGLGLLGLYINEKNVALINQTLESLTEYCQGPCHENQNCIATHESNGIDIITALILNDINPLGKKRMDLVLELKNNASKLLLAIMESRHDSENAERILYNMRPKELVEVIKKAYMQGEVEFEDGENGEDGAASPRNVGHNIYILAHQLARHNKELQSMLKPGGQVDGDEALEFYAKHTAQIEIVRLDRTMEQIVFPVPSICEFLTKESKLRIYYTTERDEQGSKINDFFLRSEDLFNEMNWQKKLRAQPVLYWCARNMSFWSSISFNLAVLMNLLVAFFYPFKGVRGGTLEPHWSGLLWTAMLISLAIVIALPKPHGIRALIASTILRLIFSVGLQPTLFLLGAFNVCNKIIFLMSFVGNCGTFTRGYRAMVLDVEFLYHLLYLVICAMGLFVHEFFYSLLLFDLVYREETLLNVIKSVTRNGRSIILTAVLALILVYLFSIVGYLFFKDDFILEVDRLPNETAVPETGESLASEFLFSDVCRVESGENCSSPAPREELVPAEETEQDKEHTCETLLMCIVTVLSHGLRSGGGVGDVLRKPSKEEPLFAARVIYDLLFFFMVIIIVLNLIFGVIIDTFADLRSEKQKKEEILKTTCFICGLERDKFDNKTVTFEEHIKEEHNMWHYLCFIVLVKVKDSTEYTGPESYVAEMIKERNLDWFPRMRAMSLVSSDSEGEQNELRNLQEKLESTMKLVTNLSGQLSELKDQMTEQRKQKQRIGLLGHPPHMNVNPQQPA

**Q.** For Bok (from UniProt Q9UMX3), which Kd is on record?
**A.** 65 nM
